# In IntAct's records for PubMed 20935634:
# B1: FAS-associated death domain protein (Homo sapiens), Q13158 (parent)
# chain: MDPFLVLLHSVSSSLSSSELTELKFLCLGRVGKRKLERVQSGLDLFSMLLEQNDLEPGHTELLRELLASLRRHDLLRRVDDFEAGAAAGAAPGEEDLCAAFNVICDNVGKDWRRLARQLKVSDTKIDSIEDRYPRNLTERVRESLRIWKNTEKENATVAHLVGALRSCQMNLVADLVQEVQQARDLQNRSGAMSPMSWNSDASTSEAS
# Variants of: B1
# Conditions: with FAS
row,Variant,effect of a mutation on the interaction
1,MDPFLVLLHSVSSSLSSSELTELKFLCLGRVGKRKLERVQSGLDLFSMLLEQNDLEPGHTELLRELLASLRRHDLLRRVDDFEAGAAAGAAPGEEDLCAAFNVICDNVGKDWRRLARQLKVSDTKIDSIEDRYPRNLTERVRESLRIWKNTEEENATVAHLVGALRSCQMNLVADLVQEVQQARDLQNRSGAMSPMSWNSDASTSEAS [K153E],decreasing interaction
2,MDPFLVLLHSVSSSLSSSELTELKFLCLGRVGKRKLERVQSGLDLFSMLLEQNDLEPGHTELLRELLASLRRHDLLRRVDDFEAGAAAGAAPGEEDLCAAFNVICDNVGKDWRRLARQLKVSDTKIDSIEDRYPRNLTERVRESLRIWKNTEKENATVAHLVGALRSCQMNEVADLVQEVQQARDLQNRSGAMSPMSWNSDASTSEAS [L172E],disrupting interaction

# Variants of: B1
# Conditions: with FAS
# Remark: another data set of the same source
row,Variant,effect of a mutation on the interaction
1,MDPFLVLLHSVSSSLSSSELTELKFLCLGRVGKRKLERVQSGLDLFSMLLEQNDLEPGHTELLRELLASLRRHDLLRRVDDFEAGAAAGAAPGEEDLCAAFNVICDNVGKDWRRLAEQLKVSDTKIDSIEDRYPRNLTERVRESLRIWKNTEKENATVAHLVGALRSCQMNLVADLVQEVQQARDLQNRSGAMSPMSWNSDASTSEAS [R117E],disrupting interaction
